From publication PMC12617621 (Computational and Structural Biotechnology Journal, 2025)

T1: (NPNA)4 peptide (Plasmodium falciparum CSP repeat …)
T1 chain: NPNANPNANPNANPNA

B1: native anti-NANP Fab (Fab, V domains shown)
VH: EVQLVESGGGLVQPGRSLRLPCTASGFSFGDHAMSWVRQAPGKGLEWVGFIRKTTYGATTHYAAAVRGRFTISRDDSKSIVYLQMNSLKTEDTAVYFCTRVQLDYGPGYQYYGMDVWGQGTTVTVSS
VL: ESVLTQPPSVSGAPGQRVTISCTGMNSNIGAGYDVYWYQQLPGRAPKLLIYGNSNRPSGVPDRFSGSRSGTSASLAITGLQAEDEADYYCQSYDTSLNGWAFGGGTKLTVL
B2: G112T mutant anti-NANP Fab (Fab, V domains shown)
VH: B1 VH
VL: B1 VL

Target: T1, (NPNA)4 peptide
Assay: SPR

Row | Binder | binding result
1 | B1 | binds
2 | B2 | binds
